Common to all, as to assay: cell-based or functional assay
In assay [1] the target is Hemagglutinin (HA) of Influenza A virus A/Wisconsin/67/2005 H3N2 (inactivated subunits, vaccine) (Influenza A virus A/Wisconsin/67/2005 H3N2).
Assay [2] has as its target Hemagglutinin (HA) of Influenza A virus A/Solomon 3/2006 H1N1 (inactivated subunits, vaccine) (Influenza A virus A/Solomon 3/2006 H1N1).
The target in assay [3] is Hemagglutinin (HA) of Influenza A virus A/Parma/24/09 (Brisbane-like) (oseltamivir-resistant) H1N1 (Influenza A virus A/Parma/24/09 H1N1).

“Lactoferrin from bovine milk (bLf) (from UniProt P24627 20-708)”: the HI titre in assay [1] was determined as 300 fM; in assay [2], 5000 fM; in assay [3], 6000 pM.

On to “… (SEQ ID NO: 1), bLf C-lobe peptide 418-429”, for which the HI titre in assay [1] was 23.2 fM; in assay [2], 46.5 fM; in assay [3], 1.4 pM.

Turning to “… (SEQ ID NO: 2), bLf C-lobe peptide 506-522”, the figures for the HI titre in assay [1], in assay [2] and in assay [3] were 11.6 fM, 46.5 fM and 1.4 pM, respectively.
